Measured values reported in patent publication US20260001928A1 (CORTERIA PHARMACEUTICALS, priority 2022, published 2026).
*1 amine or outer side, *2 acyl side, *3 side chain or, on linkers, in order; H or OH if unused. Primed or numbered codes have the meaning given here. Side-chain parts run from the residue outwards. [ ]: non-standard residue; d: D form. The star is where a group is joined. Thp′ = 4-amino-tetrahydro-2H-pyran-4-yl-acetic acid, O=C(CC1(N[*:1])CCOCC1)[*:2]; C20 diacid = O=C(O)CCCCCCCCCCCCCCCCCCC(=O)*; γGlu = O=C(O)[C@H](CCC(=O)[*:2])N[*:1]; Api = NC1(C(=O)O)CCNCC1; Aib = CC(C)(N)C(=O)O

T1: CRF1R receptor (UniProt P34998 24-415, limits assumed)
T1 sequence (looked up): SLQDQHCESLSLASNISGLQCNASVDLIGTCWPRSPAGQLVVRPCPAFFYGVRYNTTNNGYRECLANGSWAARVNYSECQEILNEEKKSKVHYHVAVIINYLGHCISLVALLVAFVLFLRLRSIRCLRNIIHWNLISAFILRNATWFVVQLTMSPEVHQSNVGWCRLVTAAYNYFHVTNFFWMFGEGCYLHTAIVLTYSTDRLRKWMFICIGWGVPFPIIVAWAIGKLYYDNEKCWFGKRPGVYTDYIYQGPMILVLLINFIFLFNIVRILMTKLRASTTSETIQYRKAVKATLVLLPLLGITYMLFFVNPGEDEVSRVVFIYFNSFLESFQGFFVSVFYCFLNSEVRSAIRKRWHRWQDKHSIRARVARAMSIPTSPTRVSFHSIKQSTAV


Legend:
[1] = molecular target: human corticotropin-releasing factor 2a (CRF2a receptor) (human), Q13324; assay: cell-based or functional assay
[2] = molecular target: T1, CRF1R receptor; assay: cell-based or functional assay

human corticotropin-releasing factor 2a (CRF2a receptor) (human), Q13324, sequence (Q13324 20-411): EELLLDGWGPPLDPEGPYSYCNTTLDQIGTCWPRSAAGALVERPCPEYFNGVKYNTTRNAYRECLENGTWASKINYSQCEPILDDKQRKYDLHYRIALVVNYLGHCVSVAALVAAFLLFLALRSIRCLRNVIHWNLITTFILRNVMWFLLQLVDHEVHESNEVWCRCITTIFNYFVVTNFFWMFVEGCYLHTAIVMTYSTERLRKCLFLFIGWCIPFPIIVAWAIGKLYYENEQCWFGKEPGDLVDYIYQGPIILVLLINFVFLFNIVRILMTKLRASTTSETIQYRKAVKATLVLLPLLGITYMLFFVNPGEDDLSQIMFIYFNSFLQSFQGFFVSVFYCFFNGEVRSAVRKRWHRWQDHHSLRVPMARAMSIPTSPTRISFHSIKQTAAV

| Binder | EC50 [nM] (cAMP) [1] | EC50 [2] | Emax (% I) [2] |
| --- | --- | --- | --- |
| Ac-IVLSLD[dV]PIKLK([γGlu-C20 diacid])KILLEQEKQKKQREQAETN[Aib]QILAQV-NH2 (SMILES CC[C@H](C)[C@H](NC(C)=O)C(=O)N[C@H](C(=O)N[C@@H](CC(C)C)C(=O)N[C@@H](CO)C(=O)N[C@@H](CC(C)C)C(=O)N[C@@H](CC(=O)O)C(=O)N[C@@H](C(=O)N1CCC[C@H]1C(=O)N[C@H](C(=O)N[C@@H](CCCCN)C(=O)N[C@@H](CC(C)C)C(=O)N[C@@H](CCCCNC(=O)CC[C@H](NC(=O)CCCCCCCCCCCCCCCCCCC(=O)O)C(=O)O)C(=O)N[C@@H](CCCCN)C(=O)N[C@H](C(=O)N[C@@H](CC(C)C)C(=O)N[C@@H](CC(C)C)C(=O)N[C@@H](CCC(=O)O)C(=O)N[C@@H](CCC(N)=O)C(=O)N[C@@H](CCC(=O)O)C(=O)N[C@@H](CCCCN)C(=O)N[C@@H](CCC(N)=O)C(=O)N[C@@H](CCCCN)C(=O)N[C@@H](CCCCN)C(=O)N[C@@H](CCC(N)=O)C(=O)N[C@@H](CCCNC(=N)N)C(=O)N[C@@H](CCC(=O)O)C(=O)N[C@@H](CCC(N)=O)C(=O)N[C@@H](C)C(=O)N[C@@H](CCC(=O)O)C(=O)N[C@H](C(=O)N[C@@H](CC(N)=O)C(=O)NC(C)(C)C(=O)N[C@@H](CCC(N)=O)C(=O)N[C@H](C(=O)N[C@@H](CC(C)C)C(=O)N[C@@H](C)C(=O)N[C@@H](CCC(N)=O)C(=O)N[C@H](C(N)=O)C(C)C)[C@@H](C)CC)[C@@H](C)O)[C@@H](C)CC)[C@@H](C)CC)C(C)C)C(C)C) [SEQ ID NO 206] | 0.11 nM | 224000 pM | 42% |
| Ac-IVLSLD[dV]PIKLK([γGlu-C20 diacid])KILLEQEKQKAQREQAETN[Aib]QILAQV-NH2 (SMILES CC[C@H](C)[C@H](NC(C)=O)C(=O)N[C@H](C(=O)N[C@@H](CC(C)C)C(=O)N[C@@H](CO)C(=O)N[C@@H](CC(C)C)C(=O)N[C@@H](CC(=O)O)C(=O)N[C@@H](C(=O)N1CCC[C@H]1C(=O)N[C@H](C(=O)N[C@@H](CCCCN)C(=O)N[C@@H](CC(C)C)C(=O)N[C@@H](CCCCNC(=O)CC[C@H](NC(=O)CCCCCCCCCCCCCCCCCCC(=O)O)C(=O)O)C(=O)N[C@@H](CCCCN)C(=O)N[C@H](C(=O)N[C@@H](CC(C)C)C(=O)N[C@@H](CC(C)C)C(=O)N[C@@H](CCC(=O)O)C(=O)N[C@@H](CCC(N)=O)C(=O)N[C@@H](CCC(=O)O)C(=O)N[C@@H](CCCCN)C(=O)N[C@@H](CCC(N)=O)C(=O)N[C@@H](CCCCN)C(=O)N[C@@H](C)C(=O)N[C@@H](CCC(N)=O)C(=O)N[C@@H](CCCNC(=N)N)C(=O)N[C@@H](CCC(=O)O)C(=O)N[C@@H](CCC(N)=O)C(=O)N[C@@H](C)C(=O)N[C@@H](CCC(=O)O)C(=O)N[C@H](C(=O)N[C@@H](CC(N)=O)C(=O)NC(C)(C)C(=O)N[C@@H](CCC(N)=O)C(=O)N[C@H](C(=O)N[C@@H](CC(C)C)C(=O)N[C@@H](C)C(=O)N[C@@H](CCC(N)=O)C(=O)N[C@H](C(N)=O)C(C)C)[C@@H](C)CC)[C@@H](C)O)[C@@H](C)CC)[C@@H](C)CC)C(C)C)C(C)C) [SEQ ID NO 212] | 0.11 nM | 229000 pM | 41% |
| Ac-IVLSLD[dV]PIKLK([γGlu-C20 diacid])KILLEQEAQKKQREQAETN[Aib]QILAQV-NH2 (SMILES CC[C@H](C)[C@H](NC(C)=O)C(=O)N[C@H](C(=O)N[C@@H](CC(C)C)C(=O)N[C@@H](CO)C(=O)N[C@@H](CC(C)C)C(=O)N[C@@H](CC(=O)O)C(=O)N[C@@H](C(=O)N1CCC[C@H]1C(=O)N[C@H](C(=O)N[C@@H](CCCCN)C(=O)N[C@@H](CC(C)C)C(=O)N[C@@H](CCCCNC(=O)CC[C@H](NC(=O)CCCCCCCCCCCCCCCCCCC(=O)O)C(=O)O)C(=O)N[C@@H](CCCCN)C(=O)N[C@H](C(=O)N[C@@H](CC(C)C)C(=O)N[C@@H](CC(C)C)C(=O)N[C@@H](CCC(=O)O)C(=O)N[C@@H](CCC(N)=O)C(=O)N[C@@H](CCC(=O)O)C(=O)N[C@@H](C)C(=O)N[C@@H](CCC(N)=O)C(=O)N[C@@H](CCCCN)C(=O)N[C@@H](CCCCN)C(=O)N[C@@H](CCC(N)=O)C(=O)N[C@@H](CCCNC(=N)N)C(=O)N[C@@H](CCC(=O)O)C(=O)N[C@@H](CCC(N)=O)C(=O)N[C@@H](C)C(=O)N[C@@H](CCC(=O)O)C(=O)N[C@H](C(=O)N[C@@H](CC(N)=O)C(=O)NC(C)(C)C(=O)N[C@@H](CCC(N)=O)C(=O)N[C@H](C(=O)N[C@@H](CC(C)C)C(=O)N[C@@H](C)C(=O)N[C@@H](CCC(N)=O)C(=O)N[C@H](C(N)=O)C(C)C)[C@@H](C)CC)[C@@H](C)O)[C@@H](C)CC)[C@@H](C)CC)C(C)C)C(C)C) [SEQ ID NO 211] | 0.15 nM | 39900 pM | 73% |
| Ac-IVLSLD[dV]PIKLK([γGlu-C20 diacid])KILLEQEKQK[Aib]QREQAETN[Api]QILAQV-NH2 (SMILES CC[C@H](C)[C@H](NC(C)=O)C(=O)N[C@H](C(=O)N[C@@H](CC(C)C)C(=O)N[C@@H](CO)C(=O)N[C@@H](CC(C)C)C(=O)N[C@@H](CC(=O)O)C(=O)N[C@@H](C(=O)N1CCC[C@H]1C(=O)N[C@H](C(=O)N[C@@H](CCCCN)C(=O)N[C@@H](CC(C)C)C(=O)N[C@@H](CCCCNC(=O)CC[C@H](NC(=O)CCCCCCCCCCCCCCCCCCC(=O)O)C(=O)O)C(=O)N[C@@H](CCCCN)C(=O)N[C@H](C(=O)N[C@@H](CC(C)C)C(=O)N[C@@H](CC(C)C)C(=O)N[C@@H](CCC(=O)O)C(=O)N[C@@H](CCC(N)=O)C(=O)N[C@@H](CCC(=O)O)C(=O)N[C@@H](CCCCN)C(=O)N[C@@H](CCC(N)=O)C(=O)N[C@@H](CCCCN)C(=O)NC(C)(C)C(=O)N[C@@H](CCC(N)=O)C(=O)N[C@@H](CCCNC(=N)N)C(=O)N[C@@H](CCC(=O)O)C(=O)N[C@@H](CCC(N)=O)C(=O)N[C@@H](C)C(=O)N[C@@H](CCC(=O)O)C(=O)N[C@H](C(=O)N[C@@H](CC(N)=O)C(=O)NC1(C(=O)N[C@@H](CCC(N)=O)C(=O)N[C@H](C(=O)N[C@@H](CC(C)C)C(=O)N[C@@H](C)C(=O)N[C@@H](CCC(N)=O)C(=O)N[C@H](C(N)=O)C(C)C)[C@@H](C)CC)CCNCC1)[C@@H](C)O)[C@@H](C)CC)[C@@H](C)CC)C(C)C)C(C)C) [SEQ ID NO 208] | 0.15 nM | 83900 pM | 63% |

The remaining lines, values ahead:

| EC50 [nM] (cAMP) [1] | EC50 [2] | Emax (% I) [2] | Binder |
| --- | --- | --- | --- |
| 0.21 nM | > 250000 pM | 35% | Ac-IVLSLD[dV]PIKLK([γGlu-C20 diacid])KILLEQEKQKKQREQAETN[Thp′]QILAQV-NH2 [SEQ ID NO 210] |
| 0.22 nM | – | 21% | Ac-IVLSLD[dV]PIKLK([γGlu-C20 diacid])KILLEQEKQK[Aib]QREQAETN[Aib]QILAQV-NH2 (SMILES CC[C@H](C)[C@H](NC(C)=O)C(=O)N[C@H](C(=O)N[C@@H](CC(C)C)C(=O)N[C@@H](CO)C(=O)N[C@@H](CC(C)C)C(=O)N[C@@H](CC(=O)O)C(=O)N[C@@H](C(=O)N1CCC[C@H]1C(=O)N[C@H](C(=O)N[C@@H](CCCCN)C(=O)N[C@@H](CC(C)C)C(=O)N[C@@H](CCCCNC(=O)CC[C@H](NC(=O)CCCCCCCCCCCCCCCCCCC(=O)O)C(=O)O)C(=O)N[C@@H](CCCCN)C(=O)N[C@H](C(=O)N[C@@H](CC(C)C)C(=O)N[C@@H](CC(C)C)C(=O)N[C@@H](CCC(=O)O)C(=O)N[C@@H](CCC(N)=O)C(=O)N[C@@H](CCC(=O)O)C(=O)N[C@@H](CCCCN)C(=O)N[C@@H](CCC(N)=O)C(=O)N[C@@H](CCCCN)C(=O)NC(C)(C)C(=O)N[C@@H](CCC(N)=O)C(=O)N[C@@H](CCCNC(=N)N)C(=O)N[C@@H](CCC(=O)O)C(=O)N[C@@H](CCC(N)=O)C(=O)N[C@@H](C)C(=O)N[C@@H](CCC(=O)O)C(=O)N[C@H](C(=O)N[C@@H](CC(N)=O)C(=O)NC(C)(C)C(=O)N[C@@H](CCC(N)=O)C(=O)N[C@H](C(=O)N[C@@H](CC(C)C)C(=O)N[C@@H](C)C(=O)N[C@@H](CCC(N)=O)C(=O)N[C@H](C(N)=O)C(C)C)[C@@H](C)CC)[C@@H](C)O)[C@@H](C)CC)[C@@H](C)CC)C(C)C)C(C)C) [SEQ ID NO 209] |
| 0.12 nM | 61400 pM | 65% | Ac-IVLSLD[dV]PIKLK([γGlu-C20 diacid])KILLEQEKQKKQREQAETN[Api]QILAQV-NH2 (SMILES CC[C@H](C)[C@H](NC(C)=O)C(=O)N[C@H](C(=O)N[C@@H](CC(C)C)C(=O)N[C@@H](CO)C(=O)N[C@@H](CC(C)C)C(=O)N[C@@H](CC(=O)O)C(=O)N[C@@H](C(=O)N1CCC[C@H]1C(=O)N[C@H](C(=O)N[C@@H](CCCCN)C(=O)N[C@@H](CC(C)C)C(=O)N[C@@H](CCCCNC(=O)CC[C@H](NC(=O)CCCCCCCCCCCCCCCCCCC(=O)O)C(=O)O)C(=O)N[C@@H](CCCCN)C(=O)N[C@H](C(=O)N[C@@H](CC(C)C)C(=O)N[C@@H](CC(C)C)C(=O)N[C@@H](CCC(=O)O)C(=O)N[C@@H](CCC(N)=O)C(=O)N[C@@H](CCC(=O)O)C(=O)N[C@@H](CCCCN)C(=O)N[C@@H](CCC(N)=O)C(=O)N[C@@H](CCCCN)C(=O)N[C@@H](CCCCN)C(=O)N[C@@H](CCC(N)=O)C(=O)N[C@@H](CCCNC(=N)N)C(=O)N[C@@H](CCC(=O)O)C(=O)N[C@@H](CCC(N)=O)C(=O)N[C@@H](C)C(=O)N[C@@H](CCC(=O)O)C(=O)N[C@H](C(=O)N[C@@H](CC(N)=O)C(=O)NC1(C(=O)N[C@@H](CCC(N)=O)C(=O)N[C@H](C(=O)N[C@@H](CC(C)C)C(=O)N[C@@H](C)C(=O)N[C@@H](CCC(N)=O)C(=O)N[C@H](C(N)=O)C(C)C)[C@@H](C)CC)CCNCC1)[C@@H](C)O)[C@@H](C)CC)[C@@H](C)CC)C(C)C)C(C)C) [SEQ ID NO 207] |
